Measurements reported in patent US20130195871A1 (AbbVie / Abbott, published 2013).
Values belong to the binder of their own block, whether it stands above or below them.

Key:
Recombinant Human IGF1R = biological target: T1, Recombinant Human IGF1R (human, UniProt P08069 31-932); assay: SPR (Biacore), C-terminal VD;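 further: surface plasmon resonance with DVD-Ig proteins captured on an anti-IgG chip and recombinant antigen flowed over in HBS-EP buffer, Langmuir global fit, KD taken as koff/kon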
T1 construct: bought reagent

[1] = biological target: T2, Recombinant Human MSP Receptor ECD-His tag (human, UniProt Q04912 25-957); assay: SPR (Biacore), N-terminal VD;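 further: capture of antibodies or DVD-Ig proteins on an anti-mouse IgG chip surface, recombinant antigen injected at 10–200 nM in HBS-EP running buffer at 25 °C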
T2 construct: extracellular domain; bought reagent; also called RON

EGFR on the cell surface [2] = biological target: T3, EGFR on the cell surface (human, UniProt P00533 25-1210); assay: flow cytometry on cells, 2 ug/mL, N-terminal VD;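 further: cells stained for 30 to 60 min on ice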
T3 construct: whole, on cells
Method: (§1) Stable cell lines overexpressing a cell-surface antigen of interest or human tumor cell lines were harvested from tissue culture flasks and resuspended in phosphate buffered saline (PBS) containing 5% fetal bovine serum (PBS/FBS). Prior to staining, human tumor cells were incubated on ice with (100 μl) human IgG at 5 μg/ml in PBS/FCS. 1-5×10⁵ cells were incubated with antibody or DVD-Ig (2 μg/mL) in PBS/FBS for 30-60 minutes on ice. […] After 30 minutes incubation on ice, cells were washed twice and resuspended in PBS/FBS. Fluorescence was measured using a Becton Dickinson FACSCalibur (Becton Dickinson, San Jose, Calif.).
(§2) The geometric mean is the n root of the multiplication product of n fluorescent signals (a1×a2×a3 . . . an). With log-transformed data the geometric mean is used to normalize the weighting of the data distribution.

EGFR on the cell surface [3] = biological target: T3, EGFR on the cell surface; assay: flow cytometry on cells, 2 ug/mL, C-terminal VD;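 further: cells stained for 30 to 60 min on ice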
Method: as §1, §2

B4: DVD2283 (bispecific antibody)
VH: QVQLQQWGAGLLKPSETLSLTCAVYGGSFSGYYWSWIRQPPGKGLEWIGEINHSGSTNYNPSLKSRVTISVETSKNQFSLKLSSVTAADTAVYYCARDKWTWYFDLWGRGTLVTVSSASTKGPEVQLVQSGAEVKKPGSSVKVSCKASGGTFSSYAISWVRQAPGQGLEWMGGIIPIFGTANYAQKFQGRVTITADKSTSTAYMELSSLRSEDTAVYYCARAPLRFLEWSTQDHYYYYYMDVWGKGTTVTVSS
VL: DIEMTQSPDSLAVSLGERATINCRSSQSVLYSSSNRNYLAWYQQNPGQPPKLLIYWASTRESGVPDRFSGSGSGTDFTLTISSLQAEDVAVYYCQQYYSTPRTFGQGTKVEIKRTVAAPSSELTQDPAVSVALGQTVRITCQGDSLRSYYATWYQQKPGQAPILVIYGENKRPSGIPDRFSGSSSGNTASLTITGAQAEDEADYYCKSRDGSGQHLVFGGGTKLTVL
notes: DVD-Ig, outer AB062 / inner AB075
Kd (Recombinant Human IGF1R): 5 nM
koff (Recombinant Human IGF1R): 0.00012 s⁻¹
kon (Recombinant Human IGF1R): 25000 M⁻¹ s⁻¹

B5: DVD2279 (bispecific antibody)
VH: EVQLVESGGGLVQPGGSLRLSCAASGFTFSIYSMNWVRQAPGKGLEWVSYISSSSSTIYYADSVKGRFTISRDNAKNSLYLQMNSLRDEDTAVYYCARDRGDFDAFDIWGQGTMVTVSSASTKGPEVQLVQSGAEVKKPGSSVKVSCKASGGTFSSYAISWVRQAPGQGLEWMGGIIPIFGTANYAQKFQGRVTITADKSTSTAYMELSSLRSEDTAVYYCARAPLRFLEWSTQDHYYYYYMDVWGKGTTVTVSS
VL: DIQMTQSPSSLSASVGDRVTITCQASQDITNYLNWYQQKPGKAPKLLIYDASNLETGVPSRFSGSGSGTDFTFTISSLQPEDIATYNCQQCENFPITFGQGTRLEIKRTVAAPSSELTQDPAVSVALGQTVRITCQGDSLRSYYATWYQQKPGQAPILVIYGENKRPSGIPDRFSGSSSGNTASLTITGAQAEDEADYYCKSRDGSGQHLVFGGGTKLTVL
notes: DVD-Ig, outer AB063 / inner AB075
Kd (Recombinant Human IGF1R): 0.047 nM
koff (Recombinant Human IGF1R): 2.3e-06 s⁻¹
kon (Recombinant Human IGF1R): 49000 M⁻¹ s⁻¹

B6: DVD2290 (bispecific antibody)
VH: EVQLVESGGGLVQPGGSLRLSCAASGFSLTNYGVHWVRQAPGKGLEWLGVGWSGGNTDYNTPFTSRLTINKDNSKNTVYLQMNSLRAEDTAVYYCARALTWYDYEFAYWGQGTLVTVSSASTKGPQVQLQESGPGLVKPSETLSLTCTVSGGSVSSGDYYWTWIRQSPGKGLEWIGHIYYSGNTNYNPSLKSRLTISIDTSKTQFSLKLSSVTAADTAIYYCVRDRVTGAFDIWGQGTMVTVSS
VL: DILLTQSPGTLSLSPGERATLSCRASQSIYTNIHWYQQKPGQAPRLLIKYASESISGIPDRFSGSGSGTDFTLTISRLEPEDFAVYYCQQNLNWPTTFGQGTKLEIKRTVAAPDIQMTQSPSSLSASVGDRVTITCQASQDISNYLNWYQQKPGKAPKLLIYDASNLETGVPSRFSGSGSGTDFTFTISSLQPEDIATYFCQHFDHLPLAFGGGTKVEIK
GEO MEAN (EGFR on the cell surface [2]): 448
GEO MEAN (EGFR on the cell surface [3]): 448

B8: DVD2291 (bispecific antibody)
VH: QVQLQESGPGLVKPSETLSLTCTVSGGSVSSGDYYWTWIRQSPGKGLEWIGHIYYSGNTNYNPSLKSRLTISIDTSKTQFSLKLSSVTAADTAIYYCVRDRVTGAFDIWGQGTMVTVSSASTKGPEVQLVESGGGLVQPGGSLRLSCAASGFSLTNYGVHWVRQAPGKGLEWLGVGWSGGNTDYNTPFTSRLTINKDNSKNTVYLQMNSLRAEDTAVYYCARALTWYDYEFAYWGQGTLVTVSS
VL: DIQMTQSPSSLSASVGDRVTITCQASQDISNYLNWYQQKPGKAPKLLIYDASNLETGVPSRFSGSGSGTDFTFTISSLQPEDIATYFCQHFDHLPLAFGGGTKVEIKRTVAAPDILLTQSPGTLSLSPGERATLSCRASQSIYTNIHWYQQKPGQAPRLLIKYASESISGIPDRFSGSGSGTDFTLTISRLEPEDFAVYYCQQNLNWPTTFGQGTKLEIK
GEO MEAN (EGFR on the cell surface [2]): 541
GEO MEAN (EGFR on the cell surface [3]): 541

Next, values leading:

binding result (Recombinant Human IGF1R): no binding (tested: 10-200 nM)
Kd [1]: 21 nM
koff [1]: 0.00093 s⁻¹
kon [1]: 44000 M⁻¹ s⁻¹
B1: DVD2324 (bispecific antibody)
VH: EVQLVQSGGGLVKPGGSLRLSCAASGFTFSSYAMHWVRQAPGKGLEWVAVISYDGSNKYYADSVKGRFTISRDNSKNTLYLQMNSLRAEDTAVYYCARFSGWPNNYYYYGMDVWGQGTTVTVSSASTKGPEVQLVQSGGGLVKPGGSLRLSCAASGFTFSSFAMHWVRQAPGKGLEWISVIDTRGATYYADSVKGRFTISRDNAKNSLYLQMNSLRAEDTAVYYCARLGNFYYGMDVWGQGTTVTVSS
VL: DVVMTQSPLSLPVTPGEPASISCRSSQSLLHSNGFNYVDWYLQKPGQSPHLLIYFGSYRASGVPDRFSGSGSGTDFTLKISRVEAEDVGVYYCMQALQTPPWTFGQGTKVEIRRTVAAPEIVLTQSPGTLSVSPGERATLSCRASQSIGSSLHWYQQKPGQAPRLLIKYASQSLSGIPDRFSGSGSGTDFTLTISRLEPEDFAVYYCHQSSRLPHTFGQGTKVEIK
notes: DVD-Ig, outer AB005 / inner AB077

binding result (Recombinant Human IGF1R): no binding (tested: 10-200 nM)
Kd [1]: 40 nM
B2: DVD2336 (bispecific antibody)
VH: QVQLQESGPGLVKPSEILSLTCTVSGGSISSHYWSWVRQPPGKGLEWIGYIYYSGSTNYNPSLKSRVTISVDTSKNQFSLNLSSVTAADTAVYYCARIPNYYDRSGYYPGYWYFDLWGRGTLVTVSSASTKGPEVQLVQSGGGLVKPGGSLRLSCAASGFTFSSFAMHWVRQAPGKGLEWISVIDTRGATYYADSVKGRFTISRDNAKNSLYLQMNSLRAEDTAVYYCARLGNFYYGMDVWGQGTTVTVSS
VL: QAVLTQPSSLSAPPGASASLTCTLRSGFNVDSYRISWYQQKPGSPPQYLLRYKSDSDKQQGSGVPSRFSGSKDASANAGILLISGLQSEDEADYYCMIWHSSAWVFGGGTKLTVLRQPKAAPEIVLTQSPGTLSVSPGERATLSCRASQSIGSSLHWYQQKPGQAPRLLIKYASQSLSGIPDRFSGSGSGTDFTLTISRLEPEDFAVYYCHQSSRLPHTFGQGTKVEIK
notes: DVD-Ig, outer AB034 / inner AB077

binding result (Recombinant Human IGF1R): no binding (tested: 10-200 nM)
Kd [1]: 21 nM
koff [1]: 0.00091 s⁻¹
B3: DVD2326 (bispecific antibody)
VH: EVQLVQSGGGLVKPGGSLRLSCAASGFTFSSYAMHWVRQAPGKGLEWVAVISYDGSNKYYADSVKGRFTISRDNSKNTLYLQMNSLRAEDTAVYYCARFSGWPNNYYYYGMDVWGQGTTVTVSSASTKGPEVQLLESGGGLVQPGGSLRLSCTASGFTFSSYAMNWVRQAPGKGLEWVSAISGSGGTTFYADSVKGRFTISRDNSRTTLYLQMNSLRAEDTAVYYCAKDLGWSDSYYYYYGMDVWGQGTTVTVSS
VL: DVVMTQSPLSLPVTPGEPASISCRSSQSLLHSNGFNYVDWYLQKPGQSPHLLIYFGSYRASGVPDRFSGSGSGTDFTLKISRVEAEDVGVYYCMQALQTPPWTFGQGTKVEIRRTVAAPDIQMTQFPSSLSASVGDRVTITCRASQGIRNDLGWYQQKPGKAPKRLIYAASRLHRGVPSRFSGSGSGTEFTLTISSLQPEDFATYYCLQHNSYPCSFGQGTKLEIK
notes: DVD-Ig, outer AB005 / inner AB011

GEO MEAN (EGFR on the cell surface [3]): 9.84
B7: DVD2347 (bispecific antibody)
VH: EVQLVQSGGGLVKPGGSLRLSCAASGFTFSSFAMHWVRQAPGKGLEWISVIDTRGATYYADSVKGRFTISRDNAKNSLYLQMNSLRAEDTAVYYCARLGNFYYGMDVWGQGTTVTVSSASTKGPQVQLQESGPGLVKPSQTLSLTCTVSGYSISSDFAWNWIRQPPGKGLEWMGYISYSGNTRYQPSLKSRITISRDTSKNQFFLKLNSVTAADTATYYCVTAGRGFPYWGQGTLVTVSS
VL: EIVLTQSPGTLSVSPGERATLSCRASQSIGSSLHWYQQKPGQAPRLLIKYASQSLSGIPDRFSGSGSGTDFTLTISRLEPEDFAVYYCHQSSRLPHTFGQGTKVEIKRTVAAPDIQMTQSPSSMSVSVGDRVTITCHSSQDINSNIGWLQQKPGKSFKGLIYHGTNLDDGVPSRFSGSGSGTDYTLTISSLQPEDFATYYCVQYAQFPWTFGGGTKLEIK
